{
  "source": "patent US9724388B2",
  "about": "“FGF-18 compound dosing regimen” (MERCK PATENT GMBH, priority 2014, dated 2017)",
  "key": {"[1]": {"tested_on": "ACLT+tMx model of instability-induced OA", "assay": "ACLT+tMx rat OA model, neo-formation of cartilaginous tissue (Safranin-O quantification)", "assay_type": "in vivo", "conditions": "for dose at which dose-dependent neo-formation of cartilaginous tissue became significant, medial tibia: FIG. 2b", "experimental": "The anterior cruciate ligament transection with resection of the medial meniscus (ACLT+tMx) model of instability-induced OA was performed in male Lewis rats 10-15 weeks of age. Briefly, under anesthesia with isoflurane, the joint capsule of the right knee of each rat was opened, the anterior cruciate and meniscus fixating ligaments were sharply transected, the meniscus was removed and the capsule, muscles and skin closed by sutures. Animals were randomly allocated into 10 groups of n=10 each. The following dosages were investigated: 0, 0.3, 1, 3 and 10 μg per intra-articular injection. Groups 1-5 received one cycle of three single injections at weekly intervals, group 6-10 three single injections at monthly intervals. Intra-articular treatment was started three weeks post-surgery. At this time pathophysiological changes are already mainifest, e.g., cartilage matrix loss. Animals were euthanized 17 weeks after surgery and joints were investigated."}, "[2]": {"tested_on": "Primary articular porcine chondrocytes", "assay": "Porcine chondrocyte proliferation with or without IL1α challenge", "assay_type": "cell-based, pig", "conditions": "100 ng/mL, 8 days", "experimental": "Porcine chondrocytes were isolated from the cartilage of a femoral head of a pig hip (pigs were approximately one year old). After dissection of the joints, the cartilage was harvested and digested 45 minutes with collagenase 0.25% (1/10 dilution of collagenase NBG4 2.5% in HAM's F12) at room temperature. The loosened cells were discarded and the cartilage further digested overnight with collagenase 0.1% (1/25 dilution of collagenase NBG4 2.5% in HAM's F12) at 37° C. to extract the chondrocytes. For this study, the chondrocytes were cultured in monolayer.\nPrimary articular porcine chondrocytes were stimulated or not with 10 ng/mL IL1α and were either treated immediately or 6 hours later with anakinra 100 ng/mL and/or trFGF-18 100 ng/mL. Each condition was performed in 4 or 6-plicates. As a control, cells were also cultured with anakinra alone, trFGF-18 alone or in the absence of any treatment (medium).\nPre-culture: After cell isolation porcine chondrocytes were inoculated at 20,000 cells/cm^2 and cultivated for one week in complete HAM's F12. Cells were then harvested with accutase, counted and used as described below.\nFor cells treated directly with anakinra: Chondrocytes were inoculated in a 24-well plate at 15,000 cells/well in 0.5 mL of complete HAM's F12. Then 0.25 mL of trFGF-18 400 ng/mL and/or 0.25 mL of anakinra 400 ng/mL were added to the cells. In the challenged samples, 10 μL of IL1α at 1,000 ng/mL were also added to the cells. trFGF-18, anakinra and IL1α were all diluted in complete HAM's F12. The final volume in the culture well was adjusted at 1 mL with complete HAM's F12. Final concentrations were 10 ng/mL IL1α, 100 ng/mL trFGF-18 and 100 ng/mL anakinra and the total culture time was eight days. A complete medium change was performed after four days. N=4.\nFor cells treated with anakinra and trFGF-18 6 hours after the IL1α challenge: Chondrocytes were inoculated in a 24-well plate at 15,000 cells/well in 1 mL of complete HAM's F12 containing or not containing IL1α 10 ng/mL. After 6 hours the medium was removed and replaced with 0.25 mL trFGF-18 400 ng/mL and/or 0.25 mL of anakinra 400 ng/mL. In the challenged samples, 0.25 mL of IL1α at 40 ng/mL was also added to the cells. trFGF-18, anakinra and IL1α were all diluted in complete HAM's F12. The final volume in the culture well was adjusted at 1 mL with complete HAM's F12. Final concentrations were 10 ng/mL IL1α, 100 ng/mL trFGF-18 and 100 ng/mL anakinra and the total culture time was eight days. A complete medium change was performed after four days. N=6.\nAfter eight days of culture, cells were harvested with accutase and resulting cell suspensions were analyzed for cell concentration and cell viability with a ViCell™ cell analyzer (from Beckman Coulter). Statistical analysis consisted in a 1-way ANOVA followed by a Dunnett post-hoc analysis."}},
  "data": [
    {"molecule": "trFGF-18: recombinant truncated form of human FGF-18 (170 amino acids, SEQ ID NO: 2), produced in E. coli (protein, Recombinant truncated FGF-18(trFGF-18)) MEENVDFRIHVENQTRARDDVSRKQLRLYQLYSRTSGKHIQVLGRRISARGEDGDKYAQLLVETDTFGSQVRIKGKETEFYLCMNRKGKLVGKPDGTSKECVFIEKVLENNYTALMSAKYSGWYVGFTKKGRPRKGPKTRENQQDVHFMKRYPKGQPELQKPFKYTTVTK", "values": [
      {"measurement": "dose at which dose-dependent neo-formation of cartilaginous tissue became significant, lateral tibia", "setting": "[1]; independently of the injection regimen (3 i.a. injections weekly or monthly), FIG. 2a", "result": 1, "unit": "μg/joint"},
      {"measurement": "dose at which dose-dependent neo-formation of cartilaginous tissue became significant, medial tibia", "setting": "[1]; one monthly regimen", "result": 0.3, "unit": "μg/joint"},
      {"measurement": "dose at which dose-dependent neo-formation of cartilaginous tissue became significant, medial tibia", "setting": "[1]; one weekly regimen", "result": 1, "unit": "μg/joint"},
      {"measurement": "stimulation of proliferation vs control (medium, IL1α 10 ng/mL)", "setting": "[2]; first experiment (direct treatment)", "result": 2.38, "unit": "fold"},
      {"measurement": "stimulation of proliferation vs control (medium, IL1α 10 ng/mL)", "setting": "[2]; second experiment (6-hour delay)", "result": 2.44, "unit": "fold"},
      {"measurement": "increase in cell numbers vs control (medium, no IL1α)", "setting": "[2]; first experiment (direct treatment, FIG. 6A)", "result": 11.25, "unit": "fold"},
      {"measurement": "increase in cell numbers vs control (medium, no IL1α)", "setting": "[2]; second experiment (6-hour delay, FIG. 6B)", "result": 7.75, "unit": "fold"}
    ]}
  ]
}
